Results published in US6323395A, “Nucleotide sequences of maize and soybean β-Ketoacyl-Acyl Carrier Protein Synthase II and their use in the regulation of fatty acid content of oil” (Dow AgroSciences LLC, priority 1998, dated 2001).
Where two headings read alike, the source gives them in different places.

Columns and labels:
[1] = system: KAS II (soybean and maize KAS II expressed in E. coli); assay: Synthase assay with cerulenin, condensation of [2-14C]malonyl-CoA with acyl-ACP; format: biochemical; conditions: cerulenin 50 μM
Protocol: Malonyl CoA-ACP transacylase, hereafter MTA, was purified from E. coli as described by Alberts et al. (1969) Methods in Enzymology, 14:50-53. Transacylase reactions were performed in 100 μL of reaction mixture [100 mM KH2 PO4, pH 6.5, 100 μM ACP, 100 μM malonyl CoA, 10 nCi [2-^4 C] malonyl CoA (43.1 Ci/mol), and 2 mM dithiothreitol (DTT). ACP was incubated with an equal volume of 20 mM DTT for 15 min before being added to the reaction mixture. Reactions were started by adding 10 μL of either enzyme alone or enzyme that had been incubated for 15 min with an inhibitor and allowed to proceed for 5 min at 23° C. […] Pellets were washed 3× with 5% perchloric acid before being resuspended in 500 µL KH2 PO4 buffer and counted using scintillation. KAS II activity was measured by modifying the method of Garwin et al. (1980) J. Biological Chem. 255:11949-11956. […] The toluene layer (300 μL) was added to 5 mL Aquasol (NEN, Boston, Mass.) and incorporated [2-^4 ] malonyl CoA was determined by scintillation counting.
For enzymatic analysis of E coli expressed soybean and maize KAS II, substrates were made as follows: ACP (Sigma Chemical Co.) was further purified by three cycles of precipitation at pH 4.0 using 10% (v/v) acetic acid followed by resolubilization in 50 mM Tris-HCl, pH 8.0. […] Incorporated malonyl-CoA was extracted into toluene prior to quantitating by liquid scintillation counting. […]

KAS I = assay: as above; format: biochemical; conditions: cerulenin at concentrations of 5 μM or greater
[2] = system: maize β-Ketoacyl-Acyl Carrier Protein Synthase II (KAS II), purified from seed; assay: KAS II activity assay, Km from double reciprocal plots; format: biochemical; conditions: cerulenin-Sepharose fraction, substrate not named, condensing activity towards C16:0-ACP
Protocol: (§1) Malonyl CoA-ACP transacylase, hereafter MTA, was purified from E. coli as described by Alberts et al. (1969) Methods in Enzymology, 14:50-53. Transacylase reactions were performed in 100 μL of reaction mixture [100 mM KH2 PO4, pH 6.5, 100 μM ACP, 100 μM malonyl CoA, 10 nCi [2-^4 C] malonyl CoA (43.1 Ci/mol), and 2 mM dithiothreitol (DTT). ACP was incubated with an equal volume of 20 mM DTT for 15 min before being added to the reaction mixture. Reactions were started by adding 10 μL of either enzyme alone or enzyme that had been incubated for 15 min with an inhibitor and allowed to proceed for 5 min at 23° C. Reactions, which were terminated by adding 400 μL of ice cold 5% (v/v) perchloric acid, were then placed on ice for 20 min before being centrifuged for 5 min at 14,000×g. Pellets were washed 3× with 5% perchloric acid before being resuspended in 500 µL KH2 PO4 buffer and counted using scintillation. KAS II activity was measured by modifying the method of Garwin et al. (1980) J. Biological Chem. 255:11949-11956. […] The toluene layer (300 μL) was added to 5 mL Aquasol (NEN, Boston, Mass.) and incorporated [2-^4 ] malonyl CoA was determined by scintillation counting. […]

[3] = system: soybean β-Ketoacyl-Acyl Carrier Protein Synthase II (KAS II), purified from seed; assay: as above; format: biochemical; conditions: cerulenin-Sepharose fraction, substrate not named, condensing activity towards C16:0-ACP
Protocol: as §1

[4] = biological target: C16:0-ACP (palmitoyl-acyl carrier protein) made from bought ACP (Escherichia coli (strain K12)) (UniProt P0A6A8)
[5] = biological target: C10:0-ACP (decanoic acid acyl-acyl carrier protein) made from bought ACP (Escherichia coli (strain K12)) (UniProt P0A6A8)
C10:0-ACP (decanoic acid acyl-acyl carrier protein) made from bought ACP (Escherichia coli (strain K12)), sequence (P0A6A8 2-78 limits assumed): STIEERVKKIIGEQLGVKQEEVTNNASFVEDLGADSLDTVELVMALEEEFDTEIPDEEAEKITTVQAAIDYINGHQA

[6] = biological target: C16:0-ACP (palmitoyl-acyl carrier protein) made from bought ACP (Escherichia coli (strain K12)) (UniProt P0A6A8); remark: listed apart in the source
Target sequence in this assay (P0A6A8 2-78 limits assumed): as above

[7] = biological target: C10:0-ACP (decanoic acid acyl-acyl carrier protein) made from bought ACP (Escherichia coli (strain K12)) (UniProt P0A6A8); remark: listed apart in the source
[8] = biological target: C16:0-ACP (palmitoyl-acyl carrier protein) made from bought ACP (Escherichia coli (strain K12)) (UniProt P0A6A8); remark: listed apart in the source
Target sequence in this assay (P0A6A8 2-78 limits assumed): as above

[9] = biological target: the molecule itself; assay: gel filtration on Superdex 200: native molecular weight 82,000±5,000 against a subunit size of 46 kDa by SDS-PAGE
Protocol: The molecular mass of native KAS II was determined by gel filtration using a Superdex 200 column (Pharmacia LKB Biotechnology, Inc.) equilibrated in 25 mM KH_2PO_4 (pH7.0). The column was calibrated using protein standards (BioRAD, Hercules, Calif.), which included blue dextran, thyroglobin (M_r, 670,000), bovine gamma globulin (Mr_r, 158,000), chicken ovalbumin (M_r, 44,000), equine myoglobin (M_r, 17,000), vitamin B-12 (M_r, 1,350).

## C/C=C/C/C=C/CCC(=O)[C@H]1O[C@H]1C(N)=O [cerulenin]
[1]
  inhibition of KAS II: about 50%
KAS I
  inhibition of KAS I activity: completely inhibits

## palmitoyl-ACP [C16:0-ACP]
[2]
  Km: 14.1 µM
[3]
  Km: 18 µM

## soybean β-Ketoacyl-Acyl Carrier Protein Synthase II purified from soybean seed (enzyme)
[4]
  Km: 18 µM

B1: second soybean KAS II expressed in E. coli from pDAB394 (enzyme)
chain: MAVALQPTQEITTIKKPPTKQRRVVVTGLGVVTPLGHEPDIFYNNLLDGASGISEIETFDCAEYPTRIAGEIKSFSTDGWVAPKLSKRMDKFMLYMLTAGKKALVDGGITDDVMDELNKEKCGVLIGSAMGGMKVFNDAIEALRISYKKMKPFCVPFATTNMGSAMLAMDLGWMGPNYSISTACATSNFCILNAANHIIRGEADVMLCGGSDAAIIPIGLGGFVACRALSQRNTDPTKASRPWDINRDGFVMGEGAGVLLLEELEHAKERGATIYAEFLGGSFTCDAYHVTEPRPDGAGVILCIEKALAQSGVSKEDVNYINAHATSTPAGDLKEYQALMHCFGQNPELRVNSTKSMIGHLLGAAGGVAAVATIQAIRTGWVHPNINLENPDNGVDAKVLVGSKKERLDVKAALSNSFGFGGHNSSIIFAPY
[5]
  synthase activity: condensation of [2-14C]malonyl-CoA with C10:0-ACP to C12:0-ACP (counts per minute per minute): 890
[6]
  synthase activity: condensation of [2-14C]malonyl-CoA with C16:0-ACP to C18:0-ACP (counts per minute per minute): 2160

B2: first soybean KAS II expressed in E. coli from pDAB393 (enzyme)
chain: MAVALQPTQEVTTIKKPPTKQRRVVVTGLGVVTPLGHEPDIFYNNLLDGVSGISEIETFDCAEYPTRIAGEIKSFSTDGWVAPKLSKRMDKFMLYMLTAGKKALVDGGITDDVMDELNKDKCGVLIGSAMGGMKVFNDAIEALRISYKKMNPFCVPFATTNMGSAMLAMDLGWMGPNYSISTACATSNFCILNAANHIIRGEADVMLCGGSDAAIIPIGLGGFVACRALSQRNTDPTKASRPWDINRDGFVMGEGAGVLLLEELEHAKKRGATIYAEFLGGSFTCDAYHVTEPRPDGAGVILCIEKALAQSGVSKEDVNYINAHATSTPAGDLKEYQALMHCFGQNPKLRVNSTKSMIGHLLGAAGAVEAVATIQAIRTGWVHPNINLEKPDNGVDAKVLVGSKKERLDVKAALSNSFGFGGHNSSIIFAPYK
[7]
  synthase activity: condensation of [2-14C]malonyl-CoA with C10:0-ACP to C12:0-ACP (counts per minute per minute): 207
[8]
  synthase activity: condensation of [2-14C]malonyl-CoA with C16:0-ACP to C18:0-ACP (counts per minute per minute): 1930
[9]
  binding result: binds

B3: maize β-Ketoacyl-Acyl Carrier Protein Synthase II purified from maize seed (enzyme)
chain: MAVALQAERSVIEKKKPDIKQRRVVVTGMGVVTPLGHDPDVFYNNLLDGVSGISEIERFDCSNFPTRIAGEIKSFSTDGWVAPKLAKRMDKFMLYLITAGKKALENGGLTEELRNELDKTRCGVLIGSAMGGMKVFNDAIEALRVSYKKMNPFCVPFATTNMGSAILAMDLGWMGPNYSISTACATSNFCILNAANHIRRGEADVMLCGGSDAPLIPIGLGGFVACRALSQRNSDPTKASRPWDMGRDGFVMGEGAGVLVLEELEHAKERGATIYAEFLGGSFTCDAYHMTEPHPEGRGIALCIEKALADAGVAREEINYVNAHATSTQAGDLKEYEAIVRCFRQNPQLRVNSTKSMTGHLIGAAGGIEAVASIQAIRTGWVHPNLNLENPEDTVDVGVLVGSQKERCEVKVALSNSFGFGGHNSSILFAPFK
[4]
  Km: 14.1 µM

B4: maize KAS II expressed in E. coli from pDAB388 (enzyme)
chain: B3 chain
[5]
  synthase activity: condensation of [2-14C]malonyl-CoA with C10:0-ACP to C12:0-ACP (counts per minute per minute): 734
[6]
  synthase activity: condensation of [2-14C]malonyl-CoA with C16:0-ACP to C18:0-ACP (counts per minute per minute): 909
